Data published in US7083777B1, “Immunomodulating polymers” (priority 1999, dated 2006).

How the values were obtained:
[1] = 0.01% solution of about 1500 kDa HA; model normally produces more than 70% adhesions; cited from earlier work
human T cells = format: cell-based; details: 20 μg/ml, 6 days post-incubation
B. fragilis [2] = experiment: Rat model of intraabdominal sepsis, abscess formation after B. fragilis challenge; format: in vivo; details: 50 μg dose
B. fragilis [3] = experiment: Protection against abscess formation by recombinant cytokine given intracardially at challenge; format: in vivo, rat; details: 100 pg intracardiac at time of challenge, 10^8 cfu B. fragilis; Experiment A
B. fragilis [4] = experiment: IL-10-mediated protection against abscess formation; format: in vivo, rat
Experimental: In order to examine further the role of IL-10 in the abscess model, male Wistar rats (150 g) were treated with recombinant IL-10, anti-IL-10, or isotype antibody control beginning on the day of challenge with 1×10^8 cfu B. fragilils. Further comparison was made using a group treated with Streptococcus pneumoniae type I CP alone or together with anti-IL-10. Animals were sacrificed and examined six days after challenge.

[5] = 0.2 μg i.p. at 0, 24, 48 and 72 hours relative to challenge

hyaluronic acid [HA]
prevention of severe intra-abdominal adhesions (in words) [1]: effectively prevents all severe intra-abdominal adhesions

poly-L-lysine
T cell activation (in words) (human T cells): did not stimulate T cell proliferation
Protection against abscess formation vs saline (in words) (B. fragilis [2]): did not protect against abscess formation

B1: IL-4: interleukin 4 given at 100 pg as comparison (protein, UniProt P05112 25-153, looked up)
Interleukin-4: HKCDITLQEIIKTLNSLTEQKTLCTELTVTDIFAASKNTTEKETFCRAATVLRQFYSHHEKDTRCLGATAQQFHRHKQLIRFLKRLDRNLWGLAGLNSCPVKEANQSTLENFLERLKTIMREKYSKCSS
Abscess formation (%) (B. fragilis [3]): 75%

B2: recombinant IL-10: recombinant interleukin-10 (protein, UniProt P22301 19-178, looked up)
Interleukin-10: SPGQGTQSENSCTHFPGNLPNMLRDLRDAFSRVKTFFQMKDQLDNLLLKESLLEDFKGYLGCQALSEMIQFYLEEVMPQAENQDPDIKAHVNSLGENLKTLRLRLRRCHRFLPCENKSKAVEQVKNAFNKLQEKGIYKAMSEFDIFINYIEAYMTMKIRN
Protection against abscess formation vs isotype control antibody (in words) (B. fragilis [4]; 0.2 μg i.p.): protected from abscess formation
Abscess formation (%) (B. fragilis [4]; [5]): 13%
No. animals with abscess/total (B. fragilis [4]; [5]): 2/16
